Laboratory results published in FireProtDB (doi:10.1126/science.aai7825).

B1: Probable ATP-dependent transporter SufC wild type, P77499 (protein)
chain: MLSIKDLHVSVEDKAILRGLSLDVHPGEVHAIMGPNGSGKSTLSATLAGREDYEVTGGTVEFKGKDLLALSPEDRAGEGIFMAFQYPVEIPGVSNQFFLQTALNAVRSYRGQETLDRFDFQDLMEEKIALLKMPEDLLTRSVNVGFSGGEKKRNDILQMAVLEPELCILDESDSGLDIDALKVVADGVNSLRDGKRSFIIVTHYQRILDYIKPDYVHVLYQGRIVKSGDFTLVKQLEEQGYGWLTEQQ
B2: dTDP-glucose 4,6-dehydratase 1 wild type, P37759 (protein)
chain: MKILVTGGAGFIGSAVVRHIINNTQDSVVNVDKLTYAGNRESLADVSDSERYVFEHADICDAPAMARIFAQHQPDAVMHLAAESHVDRSITGPAAFIETNIVGTYVLLEAARNYWSALDSDKKNSFRFHHISTDEVYGDLPHPDEVNNTEELPLFTETTAYAPSSPYSASKASSDHLVRAWKRTYGLPTIVTNCSNNYGPYHFPEKLIPLVILNALEGKALPIYGKGDQIRDWLYVEDHARALYTVVTEGKAGETYNIGGHNEKKNIDVVLTICDLLDEIVPKEKSYREQITYVADRPGHDRRYAIDAEKIGRALGWKPQETFESGIRKTVEWYLSNTKWVDNVKSGAYQSWIEQNYEGRQ
B3: Phosphoribosylglycinamide formyltransferase wild type, P08179 (protein)
chain: MNIVVLISGNGSNLQAIIDACKTNKIKGTVRAVFSNKADAFGLERARQAGIATHTLIASAFDSREAYDRELIHEIDMYAPDVVVLAGFMRILSPAFVSHYAGRLLNIHPSLLPKYPGLHTHRQALENGDEEHGTSVHFVTDELDGGPVILQAKVPVFAGDSEDDITARVQTQEHAIYPLVISWFADGRLKMHENAAWLDGQRLPPQGYAADE
B4: UTP--glucose-1-phosphate uridylyltransferase wild type, P0AEP3 (protein)
chain: MAAINTKVKKAVIPVAGLGTRMLPATKAIPKEMLPLVDKPLIQYVVNECIAAGITEIVLVTHSSKNSIENHFDTSFELEAMLEKRVKRQLLDEVQSICPPHVTIMQVRQGLAKGLGHAVLCAHPVVGDEPVAVILPDVILDEYESDLSQDNLAEMIRRFDETGHSQIMVEPVADVTAYGVVDCKGVELAPGESVPMVGVVEKPKADVAPSNLAIVGRYVLSADIWPLLAKTPPGAGDEIQLTDAIDMLIEKETVEAYHMKGKSHDCGNKLGYMQAFVEYGIRHNTLGTEFKAWLEEEMGIKK
B5: Putative NAD(P)H nitroreductase YdjA wild type, P0ACY1 (protein)
chain: MDALELLINRRSASRLAEPAPTGEQLQNILRAGMRAPDHKSMQPWHFFVIEGEGRERFSAVLEQGAIAAGSDDKAIDKARNAPFRAPLIITVVAKCEENHKVPRWEQEMSAGCAVMAMQMAAVAQGFGGIWRSGALTESPVVREAFGCREQDKIVGFLYLGTPQLKASTSINVPDPTPFVTYF
B6: GTPase ObgE/CgtA wild type, P42641 (protein)
chain: MKFVDEASILVVAGDGGNGCVSFRREKYIPKGGPDGGDGGDGGDVWMEADENLNTLIDYRFEKSFRAERGQNGASRDCTGKRGKDVTIKVPVGTRVIDQGTGETMGDMTKHGQRLLVAKGGWHGLGNTRFKSSVNRTPRQKTNGTPGDKRELLLELMLLADVGMLGMPNAGKSTFIRAVSAAKPKVADYPFTTLVPSLGVVRMDNEKSFVVADIPGLIEGAAEGAGLGIRFLKHLERCRVLLHLIDIDPIDGTDPVENARIIISELEKYSQDLATKPRWLVFNKIDLLDKVEAEEKAKAIAEALGWEDKYYLISAASGLGVKDLCWDVMTFIIENPVVQAEEAKQPEKVEFMWDDYHRQQLEEIAEEDDEDWDDDWDEDDEEGVEFIYKR
B7: Integration host factor subunit alpha wild type, P0A6X7 (protein)
chain: MALTKAEMSEYLFDKLGLSKRDAKELVELFFEEIRRALENGEQVKLSGFGNFDLRDKNQRPGRNPKTGEDIPITARRVVTFRPGQKLKSRVENASPKDE
B8: UDP-glucose 4-epimerase wild type, P09147 (protein)
chain: MRVLVTGGSGYIGSHTCVQLLQNGHDVIILDNLCNSKRSVLPVIERLGGKHPTFVEGDIRNEALMTEILHDHAIDTVIHFAGLKAVGESVQKPLEYYDNNVNGTLRLISAMRAANVKNFIFSSSATVYGDQPKIPYVESFPTGTPQSPYGKSKLMVEQILTDLQKAQPDWSIALLRYFNPVGAHPSGDMGEDPQGIPNNLMPYIAQVAVGRRDSLAIFGNDYPTEDGTGVRDYIHVMDLADGHVVAMEKLANKPGVHIYNLGAGVGNSVLDVVNAFSKACGKPVNYHFAPRREGDLPAYWADASKADRELNWRVTRTLDEMAQDTWHWQSRHPQGYPD
B9: Formate-dependent phosphoribosylglycinamide formyltransferase wild type, P33221 (protein)
chain: MTLLGTALRPAATRVMLLGSGELGKEVAIECQRLGVEVIAVDRYADAPAMHVAHRSHVINMLDGDALRRVVELEKPHYIVPEIEAIATDMLIQLEEEGLNVVPCARATKLTMNREGIRRLAAEELQLPTSTYRFADSESLFREAVADIGYPCIVKPVMSSSGKGQTFIRSAEQLAQAWKYAQQGGRAGAGRVIVEGVVKFDFEITLLTVSAVDGVHFCAPVGHRQEDGDYRESWQPQQMSPLALERAQEIARKVVLALGGYGLFGVELFVCGDEVIFSEVSPRPHDTGMVTLISQDLSEFALHVRAFLGLPVGGIRQYGPAASAVILPQLTSQNVTFDNVQNAVGADLQIRLFGKPEIDGSRRLGVALATAESVVDAIERAKHAAGQVKVQG
B10: Phenylalanine--tRNA ligase alpha subunit wild type, P08312 (protein)
chain: MSHLAELVASAKAAISQASDVAALDNVRVEYLGKKGHLTLQMTTLRELPPEERPAAGAVINEAKEQVQQALNARKAELESAALNARLAAETIDVSLPGRRIENGGLHPVTRTIDRIESFFGELGFTVATGPEIEDDYHNFDALNIPGHHPARADHDTFWFDTTRLLRTQTSGVQIRTMKAQQPPIRIIAPGRVYRNDYDQTHTPMFHQMEGLIVDTNISFTNLKGTLHDFLRNFFEEDLQIRFRPSYFPFTEPSAEVDVMGKNGKWLEVLGCGMVHPNVLRNVGIDPEVYSGFAFGMGMERLTMLRYGVTDLRSFFENDLRFLKQFK
B11: dTDP-4-dehydrorhamnose 3,5-epimerase wild type, P37745 (protein)
chain: MNVIRTEIEDVLILEPRVFGDDRGFFYESFNQSAFEHILGYPVSFVQDNHSRSSKNVLRGLHFQRGEYAQDKLVRCTHGAVFDVAVDIRPNSVSFGKWVGVLLSADNKQQLWIPKGFAHGFLVLSDIAEFQYKTTNYYHPESDCGICWNDERIAIDWPQTSGLILSPKDERLFTLDELIRLKLIA
B12: Protein GrpE wild type, P09372 (protein)
chain: MSSKEQKTPEGQAPEEIIMDQHEEIEAVEPEASAEQVDPRDEKVANLEAQLAEAQTRERDGILRVKAEMENLRRRTELDIEKAHKFALEKFINELLPVIDSLDRALEVADKANPDMSAMVEGIELTLKSMLDVVRKFGVEVIAETNVPLDPNVHQAIAMVESDDVAPGNVLGIMQKGYTLNGRTIRAAMVTVAKAKA
B13: Ribosomal small subunit pseudouridine synthase A wild type, P0AA43 (protein)
chain: MRLDKFIAQQLGVSRAIAGREIRGNRVTVDGEIVRNAAFKLLPEHDVAYDGNPLAQQHGPRYFMLNKPQGYVCSTDDPDHPTVLYFLDEPVAWKLHAAGRLDIDTTGLVLMTDDGQWSHRITSPRHHCEKTYLVTLESPVADDTAEQFAKGVQLHNEKDLTKPAVLEVITPTQVRLTISEGRYHQVKRMFAAVGNHVVELHRERIGGITLDADLAPGEYRPLTEEEIASVV
B14: Transcriptional regulatory protein CusR wild type, P0ACZ8 (protein)
chain: MKLLIVEDEKKTGEYLTKGLTEAGFVVDLADNGLNGYHLAMTGDYDLIILDIMLPDVNGWDIVRMLRSANKGMPILLLTALGTIEHRVKGLELGADDYLVKPFAFAELLARVRTLLRRGAAVIIESQFQVADLMVDLVSRKVTRSGTRITLTSKEFTLLEFFLRHQGEVLPRSLIASQVWDMNFDSDTNAIDVAVKRLRGKIDNDFEPKLIQTVRGVGYMLEVPDGQ
B15: Mannosyl-3-phosphoglycerate phosphatase wild type, P76329 (protein)
chain: MFSIQQPLLVFSDLDGTLLDSHSYDWQPAAPWLTRLREANVPVILCSSKTSAEMLYLQKTLGLQGLPLIAENGAVIQLAEQWQEIDGFPRIISGISHGEISLVLNTLREKEHFKFTTFDDVDDATIAEWTGLSRSQAALTQLHEASVTLIWRDSDERMAQFTARLNELGLQFMQGARFWHVLDASAGKDQAANWIIATYQQLSGKRPTTLGLGDGPNDAPLLEVMDYAVIVKGLNREGVHLHDEDPARVWRTQREGPEGWREGLDHFFSAR
B16: Phosphoribosylaminoimidazole-succinocarboxamide synthase wild type, P0A7D7 (protein)
chain: MQKQAELYRGKAKTVYSTENPDLLVLEFRNDTSAGDGARIEQFDRKGMVNNKFNYFIMSKLAEAGIPTQMERLLSDTECLVKKLDMVPVECVVRNRAAGSLVKRLGIEEGIELNPPLFDLFLKNDAMHDPMVNESYCETFGWVSKENLARMKELTYKANDVLKKLFDDAGLILVDFKLEFGLYKGEVVLGDEFSPDGSRLWDKETLEKMDKDRFRQSLGGLIEAYEAVARRLGVQLD
B17: Glucokinase wild type, P0A6V8 (protein)
chain: MTKYALVGDVGGTNARLALCDIASGEISQAKTYSGLDYPSLEAVIRVYLEEHKVEVKDGCIAIACPITGDWVAMTNHTWAFSIAEMKKNLGFSHLEIINDFTAVSMAIPMLKKEHLIQFGGAEPVEGKPIAVYGAGTGLGVAHLVHVDKRWVSLPGEGGHVDFAPNSEEEAIILEILRAEIGHVSAERVLSGPGLVNLYRAIVKADNRLPENLKPKDITERALADSCTDCRRALSLFCVIMGRFGGNLALNLGTFGGVFIAGGIVPRFLEFFKASGFRAAFEDKGRFKEYVHDIPVYLIVHDNPGLLGSGAHLRQTLGHIL

Settings: Escherichia coli (strain K12); pH 7.5; Thermal; Intensity; HEPES 20mM; transition: 2; whole UniProt chain shown

Q: For B1, which Tm is on record?
A: Its Tm is 44.9 °C.

Q: With B2 as the protein, how does the Tm read?
A: The Tm was 44.3 °C.

Q: Which Tm does the source give for B3 here?
A: Its Tm is 43.5 °C.

Q: Which Tm does the source give for B4 here?
A: The Tm was 45.6 °C.

Q: Which Tm does the source give for B5 here?
A: The Tm was 45.3 °C.

Q: For B6, which Tm is on record?
A: Its Tm is 44.5 °C.

Q: With B7 as the protein, how does the Tm read?
A: Its Tm is 44.6 °C.

Q: Which Tm does the source give for B8 here?
A: Its Tm is 45 °C.

Q: With B9 as the protein, how does the Tm read?
A: Its Tm is 43.4 °C.

Q: With B10 as the protein, how does the Tm read?
A: The Tm was 43.3 °C.

Q: With B11 as the protein, how does the Tm read?
A: The Tm was 44.2 °C.

Q: Which Tm does the source give for B12 here?
A: Its Tm is 44 °C.

Q: With B13 as the protein, how does the Tm read?
A: The Tm was 45 °C.

Q: With B14 as the protein, how does the Tm read?
A: The Tm was 43.7 °C.

Q: With B15 as the protein, how does the Tm read?
A: Its Tm is 43.9 °C.

Q: Which Tm does the source give for B16 here?
A: Its Tm is 43.1 °C.

Q: Which Tm does the source give for B17 here?
A: The Tm was 44.4 °C.
